± gives the standard deviation of the averaged measurements.
test system: Saccharomyces cerevisiae; experiment: protein stability index of tFT-peptide fusion (C-terminal peptide) (PSI (0-1 scale)); higher = more stable (slower turnover); settings: genetic background: wild type; temperature: 30 C
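Note: PSI is a weighted mean of sequencing reads over stability bins, variants kept only with over 10 reads, mCherry proximal and sfGFP distal, peptide attached via GGGS linker.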

Sequence | protein stability index
PIDYRPEPYALP | 0.775 ± 0.034
PIGFSHISFSPS | 0.645 ± 0.1
PINALLHNKRES | 0.721 ± 0.082
PIPPHGTPPAAY | 0.694 ± 0.036
PIPPPAPPPAPP | 0.6778 ± 0.0036
PIPPPPRACGPS | 0.7 ± 0.02
PIPSPAPLPPRP | 0.675 ± 0.0073
PIRPQSSVSLKQ | 0.64958 ± 0.00064
PIRPSPPVLPPL | 0.647 ± 0.11
PISLFLSSSAPL | 0.729 ± 0.053
PISTHYGSAVFM | 0.692 ± 0.029
PITFPPSLPPPP | 0.666 ± 0.045
PIVLALPTFPPL | 0.716 ± 0.048
PIWRLVMRCCRS | 0.575 ± 0.022
PKKGKKKLREKS | 0.728 ± 0.051
PKKTTIQRDKTN | 0.607 ± 0.027
PKNNHTKKKTGQ | 0.677 ± 0.0093
PKPNRAHSTTHR | 0.691 ± 0.008
PKRTHDPAPKTT | 0.70897 ± 0.00058
PKRTTHIGRIHE | 0.6875 ± 0.006
PKSGRAVMQGEG | 0.631 ± 0.071
PKSRTLKDITIF | 0.684 ± 0.024
PLAPPRSPHLPP | 0.673 ± 0.041

Sequence | protein stability index
PLAPSSHLHPSP | 0.75 ± 0.0015
PLATLIPPLIPS | 0.554 ± 0.084
PLCLPALPPPLP | 0.676 ± 0.097
PLFLLPSSPPAS | 0.757 ± 0.06
PLFLPALPPPLP | 0.687 ± 0.11
PLFPACYFHPFD | 0.746 ± 0.032
PLFYSLCFFCGL | 0.667 ± 0.044
PLGGLTLNIIEC | 0.701 ± 0.0089
PLGPPPPPPLPS | 0.7222 ± 0.0058
PLHHPPSPRLPP | 0.617 ± 0.018
PLHLYPHPPTHS | 0.698 ± 0.078
PLHSPPSRPCQL | 0.691 ± 0.065
PLHVSLVRFGCP | 0.633 ± 0.032
PLHYPTPCHPLP | 0.726 ± 0.052
PLKTDSVPEFTA | 0.5811 ± 0.0033
PLLASRFLQVGF | 0.678 ± 0.0074
PLLLHHPPPRVP | 0.666 ± 0.029
PLLPLPPNPSPP | 0.681 ± 0.022
PLLPSPPLLLPS | 0.819 ± 0.12
PLLSYSPPAPPP | 0.664 ± 0.024
PLLTPPFFPPPP | 0.7588 ± 0.0053
PLNQKPPDWPTQ | 0.734 ± 0.015
PLNSNSYDASPL | 0.658 ± 0.052

Sequence | protein stability index
PLPALPPPPRGP | 0.636 ± 0.026
PLPAPPLPPRSP | 0.703 ± 0.012
PLPDPPPTPSGT | 0.682 ± 0.058
PLPGPSPPPAPP | 0.648 ± 0.044
PLPHPPPPPPLP | 0.768 ± 0.026
PLPINAGVRITP | 0.671 ± 0.1
PLPLHLATPHLF | 0.694 ± 0.05
PLPLPLPSRPRP | 0.653 ± 0.044
PLPMPHPRSRST | 0.673 ± 0.014
PLPPCSARPPPR | 0.7657 ± 0.0042
PLPPDPPCPPPP | 0.651 ± 0.072
PLPPLPPPLPAP | 0.705 ± 0.052
PLPPLPSTHPTL | 0.698 ± 0.035
PLPPPLPNPPPS | 0.667 ± 0.074
PLPPPLPPPGPH | 0.731 ± 0.053
PLPPPPARLPSP | 0.703 ± 0.017
PLPPPPHPLLLL | 0.681 ± 0.024
PLPPPPRLPPRH | 0.677 ± 0.04
PLPPPPYPPTLL | 0.592 ± 0.016
PLPPPSPSSLSP | 0.713 ± 0.074
PLPPRSPPRRPS | 0.634 ± 0.079
PLPPSAPPLPPS | 0.778 ± 0.091
PLPSFPFPRPSS | 0.634 ± 0.037

Sequence | protein stability index
PLPSHSRSRHPR | 0.744 ± 0.075
PLPSLLLLPPFP | 0.701 ± 0.058
PLPSPPPPFLSL | 0.71 ± 0.048
PLPSPPPSATSL | 0.602 ± 0.045
PLPTPTPPPPAP | 0.734 ± 0.028
PLPTSRKSFGLV | 0.665 ± 0.06
PLPWIFHCRAPL | 0.719 ± 0.048
PLQEHYRQIFPD | 0.71 ± 0.0044
PLQFLPPLPCVS | 0.539 ± 0.039
PLQFSLADEFST | 0.705 ± 0.02
PLRFSSFSFPGW | 0.739 ± 0.13
PLRRPPRLPAPP | 0.7 ± 0.11
PLRTRESIGARG | 0.707 ± 0.038
PLSASPLPPFSR | 0.734 ± 0.11
PLSCDSPFVNPT | 0.737 ± 0.042
PLSFPALFSPLS | 0.684 ± 0.034
PLSHSPPAPSSP | 0.658 ± 0.026
PLSLICLLKSYL | 0.708 ± 0.025
PLSLPLSLLCPP | 0.698 ± 0.051
PLSLPPPSPRPP | 0.657 ± 0.013
PLSLSVPPAFFI | 0.538 ± 0.14
PLSPLALLPLRF | 0.694 ± 0.065
PLSPLSLSPVAP | 0.62 ± 0.026

Sequence | protein stability index
PLSPPPPSHIPP | 0.653 ± 0.023
PLTNPPCLTKYP | 0.793 ± 0.033
PLTPPPAVHTYL | 0.72 ± 0.037
PLTPVSPSPNPV | 0.648 ± 0.042
PLTSNTSPPPMT | 0.618 ± 0.072
PLVQSSCCRNYY | 0.7 ± 0.04
PLVVPPSPRPPP | 0.735 ± 0.063
PLWAVRPLLPPE | 0.677 ± 0.016
PMADACPAPPPQ | 0.643 ± 0.041
PMPGATDCQRGC | 0.615 ± 0.053
PNFPEPSLTDAL | 0.716 ± 0.04
PNGSRPAHGVKN | 0.646 ± 0.032
PNLPRHPFPPSS | 0.74 ± 0.011
PNLTYNTLRVVL | 0.638 ± 0.04
PNNANHIKHRQY | 0.6722 ± 0.0012
PNPEKPPGAPGQ | 0.63 ± 0.087
PNPHDPQLPPPH | 0.709 ± 0.05
PNPHGRPSIPAL | 0.65 ± 0.039
PNPIHHPTSTTA | 0.672 ± 0.053
PNQTRPHPHHNL | 0.69 ± 0.02
PNRSPPLPRPLM | 0.693 ± 0.0074
PPAICSFLSPPF | 0.655 ± 0.017
PPALSLPAPLLP | 0.6592 ± 0.0039

Sequence | protein stability index
PPAPPARFPSPP | 0.711 ± 0.068
PPAPPPLPPPTH | 0.633 ± 0.049
PPAPPPLSPSPI | 0.832 ± 0.04
PPAPRPRSPSPL | 0.719 ± 0.0085
PPAPRVSPPPPP | 0.712 ± 0.073
PPAPSSLTASPF | 0.71 ± 0.08
PPARLPLPPPSP | 0.753 ± 0.061
PPARPLFPLPRL | 0.754 ± 0.077
PPASSPRRPTPP | 0.675 ± 0.011
PPDGRPPPLRLM | 0.679 ± 0.014
PPDSPSPLPPPP | 0.681 ± 0.054
PPFLSPLRPPSL | 0.781 ± 0.09
PPFPARPRPHPV | 0.6623 ± 0.0056
PPFPLACPPLLF | 0.657 ± 0.11
PPFPPPPPPPLS | 0.714 ± 0.05
PPFRPRPPPPSA | 0.812 ± 0.17
PPFRRPPPDPQP | 0.7343 ± 0.0059
PPFSTPFLPPSS | 0.727 ± 0.072
PPFTLRPQVPTH | 0.664 ± 0.0097
PPGQRGRRDRAA | 0.647 ± 0.015
PPGSSPPPVLSL | 0.703 ± 0.022
PPHGRKRRGKEP | 0.776 ± 0.16
PPHHLPPGPPHP | 0.72 ± 0.078

Sequence | protein stability index
PPHLFLPSSMPF | 0.693 ± 0.015
PPHPPPPSPALL | 0.74 ± 0.01
PPHPPPRLPPPP | 0.724 ± 0.043
PPHRRTPQRRCP | 0.701 ± 0.013
PPIPPSAPLCPP | 0.688 ± 0.014
PPIPYIVPPSYT | 0.657 ± 0.015
PPITKKITRNTA | 0.676 ± 0.014
PPIWYAKHRPAP | 0.6904 ± 0.0069
PPLCPPLQPPLI | 0.639 ± 0.02
PPLFRPPASAPR | 0.715 ± 0.018
PPLLPLPPRPLL | 0.728 ± 0.044
PPLLPPPPQLLL | 0.679 ± 0.028
PPLLPPPVPPVP | 0.727 ± 0.07
PPLMLPSTPSSS | 0.704 ± 0.095
PPLPAPGPIFLP | 0.652 ± 0.037
PPLPGHPCLWPT | 0.649 ± 0.057
PPLPLPGPDHHL | 0.731 ± 0.087
PPLPLPPSRSPA | 0.686 ± 0.026
PPLPLPSPRPPP | 0.619 ± 0.0092
PPLPPAPPPPPH | 0.697 ± 0.056
PPLPPLCRPLPP | 0.685 ± 0.1
PPLPPLPSPSPP | 0.721 ± 0.092

From the supplement of paper PMC10724198
